The source of these data is the supplement of paper PMC10567573.

The labels stand for the following.
B1: SETD8 (parent)
chain: FVVEYHGDLIEITDAKKREALYAQ
B2: GLTSCR2 (parent)
chain: LARRRRRRQARREAEADKPRRLGR
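Further: lentivirally expressed fusions sorted by FACS into six bins by GFP to DsRed ratio, PSI derived from sequencing read proportions per bin multiplied by bin number.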

Variants of B1 are the subject of one data set. Briefly: protein stability index of a GFP-peptide fusion (GPS, HEK-293T) (PSI 1-6); higher = more stable. As to conditions: c terminus: a fixed tail appended.
For FVVEYHGDLIEITDAKKREALYAA [Q24A], the protein stability index turned out to be 2.5.

On to FVVEYHGDLIEITDAKKREALYAL [Q24L], for which the protein stability index was determined as 1.51.

As to FVVEYHGDLIEITDAKKREALYAH [Q24H], the protein stability index worked out at 1.64.

FVVEYHGDLIEITDAKKREALYAK [Q24K]: the protein stability index was 1.86.

For the variant FVVEYHGDLIEITDAKKREALYAD [Q24D], the protein stability index came to 1.77.

Take FVVEYHGDLIEITDAKKREALYAY [Q24Y]: the protein stability index turned out to be 1.32.

For the variant FVVEYHGDLIEITDAKKREALYAF [Q24F], the protein stability index worked out at 1.5.

As for FVVEYHGDLIEITDAKKREALYAW [Q24W], the protein stability index worked out at 1.63.

With FVVEYHGDLIEITDAKKREALYAG [Q24G], the protein stability index stood at 1.37.

FVVEYHGDLIEITDAKKREALYAT [Q24T]: the protein stability index was 2.09.

Consider FVVEYHGDLIEITDAKKREALYAP [Q24P], for which the protein stability index came to 2.05.

As to FVVEYHGDLIEITDAKKREALYAM [Q24M], the protein stability index worked out at 1.75.

In the case of FVVEYHGDLIEITDAKKREALYAR [Q24R], the protein stability index stood at 2.89.

For FVVEYHGDLIEITDAKKREALYAE [Q24E], the protein stability index is 1.86.

For FVVEYHGDLIEITDAKKREALYAS [Q24S], the protein stability index is 1.6.

FVVEYHGDLIEITDAKKREALYAV [Q24V]: the protein stability index was found to be 1.85.

Regarding FVVEYHGDLIEITDAKKREALYAC [Q24C], the protein stability index came out at 1.35.

In the case of FVVEYHGDLIEITDAKKREALYAN [Q24N], the protein stability index came to 1.71.

On to FVVEYHGDLIEITDAKKREALYAI [Q24I], for which the protein stability index worked out at 1.75.

In the case of FVVEYHGDLIEITDAKKREALYDQ [A23D], the protein stability index was 1.79.

As for FVVEYHGDLIEITDAKKREALYFQ [A23F], the protein stability index came to 2.57.

As to FVVEYHGDLIEITDAKKREALYSQ [A23S], the protein stability index came out at 1.92.

Turning to FVVEYHGDLIEITDAKKREALYKQ [A23K], the protein stability index is 2.17.

As for FVVEYHGDLIEITDAKKREALYWQ [A23W], the protein stability index is 2.12.

With FVVEYHGDLIEITDAKKREALYTQ [A23T], the protein stability index turned out to be 2.21.

Take FVVEYHGDLIEITDAKKREALYGQ [A23G]: the protein stability index is 1.13.

Turning to FVVEYHGDLIEITDAKKREALYNQ [A23N], the protein stability index was 1.69.

Regarding FVVEYHGDLIEITDAKKREALYEQ [A23E], the protein stability index was 1.84.

For FVVEYHGDLIEITDAKKREALYLQ [A23L], the protein stability index was 2.36.

For FVVEYHGDLIEITDAKKREALYIQ [A23I], the protein stability index came out at 1.6.

As for FVVEYHGDLIEITDAKKREALYMQ [A23M], the protein stability index stood at 1.83.

With FVVEYHGDLIEITDAKKREALYVQ [A23V], the protein stability index stood at 1.65.

For FVVEYHGDLIEITDAKKREALYQQ [A23Q], the protein stability index amounted to 1.85.

For the variant FVVEYHGDLIEITDAKKREALYRQ [A23R], the protein stability index is 2.3.

For FVVEYHGDLIEITDAKKREALYHQ [A23H], the protein stability index was found to be 2.1.

On to FVVEYHGDLIEITDAKKREALYCQ [A23C], for which the protein stability index was 1.29.

As to FVVEYHGDLIEITDAKKREALYPQ [A23P], the protein stability index worked out at 1.89.

Regarding FVVEYHGDLIEITDAKKREALYYQ [A23Y], the protein stability index is 1.3.

FVVEYHGDLIEITDAKKREALTAQ [Y22T]: the protein stability index is 1.76.

For FVVEYHGDLIEITDAKKREALWAQ [Y22W], the protein stability index turned out to be 1.56.

As for FVVEYHGDLIEITDAKKREALVAQ [Y22V], the protein stability index worked out at 2.08.

As for FVVEYHGDLIEITDAKKREALSAQ [Y22S], the protein stability index amounted to 1.68.

The variants in another data set derive from B2. The description is as above. The following applies: c terminus: a fixed tail appended.
For LDRRRRRRQARREAEADKPRRLGR [A2D], the protein stability index worked out at 4.41.

For the variant LKRRRRRRQARREAEADKPRRLGR [A2K], the protein stability index came to 4.42.

In the case of LTRRRRRRQARREAEADKPRRLGR [A2T], the protein stability index came to 4.28.

Take LNRRRRRRQARREAEADKPRRLGR [A2N]: the protein stability index amounted to 4.9.

Regarding LIRRRRRRQARREAEADKPRRLGR [A2I], the protein stability index worked out at 4.62.

With LCRRRRRRQARREAEADKPRRLGR [A2C], the protein stability index is 4.49.

With LSRRRRRRQARREAEADKPRRLGR [A2S], the protein stability index came out at 4.83.

With LWRRRRRRQARREAEADKPRRLGR [A2W], the protein stability index is 3.61.

Turning to LQRRRRRRQARREAEADKPRRLGR [A2Q], the protein stability index was found to be 5.01.

Turning to LERRRRRRQARREAEADKPRRLGR [A2E], the protein stability index was 4.71.

In the case of LFRRRRRRQARREAEADKPRRLGR [A2F], the protein stability index came out at 3.4.

Turning to LYRRRRRRQARREAEADKPRRLGR [A2Y], the protein stability index was determined as 4.32.

Consider LMRRRRRRQARREAEADKPRRLGR [A2M], for which the protein stability index stood at 4.19.

Take LGRRRRRRQARREAEADKPRRLGR [A2G]: the protein stability index turned out to be 4.78.

Turning to LPRRRRRRQARREAEADKPRRLGR [A2P], the protein stability index was 4.84.

With LLRRRRRRQARREAEADKPRRLGR [A2L], the protein stability index stood at 3.84.

With LVRRRRRRQARREAEADKPRRLGR [A2V], the protein stability index was 3.51.

For LHRRRRRRQARREAEADKPRRLGR [A2H], the protein stability index was 4.76.

In the case of LRRRRRRRQARREAEADKPRRLGR [A2R], the protein stability index came to 5.33.

As for LANRRRRRQARREAEADKPRRLGR [R3N], the protein stability index turned out to be 4.69.

Take LAHRRRRRQARREAEADKPRRLGR [R3H]: the protein stability index was determined as 4.3.

Turning to LAQRRRRRQARREAEADKPRRLGR [R3Q], the protein stability index stood at 4.99.

Regarding LACRRRRRQARREAEADKPRRLGR [R3C], the protein stability index came out at 4.74.

Turning to LAKRRRRRQARREAEADKPRRLGR [R3K], the protein stability index stood at 5.03.

For LALRRRRRQARREAEADKPRRLGR [R3L], the protein stability index was 4.3.

On to LAERRRRRQARREAEADKPRRLGR [R3E], for which the protein stability index is 5.08.

On to LAARRRRRQARREAEADKPRRLGR [R3A], for which the protein stability index came out at 5.01.

Turning to LADRRRRRQARREAEADKPRRLGR [R3D], the protein stability index came out at 4.56.

Take LAMRRRRRQARREAEADKPRRLGR [R3M]: the protein stability index is 4.41.

As to LAIRRRRRQARREAEADKPRRLGR [R3I], the protein stability index came out at 4.36.

Regarding LAFRRRRRQARREAEADKPRRLGR [R3F], the protein stability index is 4.34.

For LAGRRRRRQARREAEADKPRRLGR [R3G], the protein stability index worked out at 5.02.

Consider LAPRRRRRQARREAEADKPRRLGR [R3P], for which the protein stability index came to 5.54.

For the variant TARRRRRRQARREAEADKPRRLGR [L1T], the protein stability index is 5.33.

Consider KARRRRRRQARREAEADKPRRLGR [L1K], for which the protein stability index was 4.56.

Regarding FARRRRRRQARREAEADKPRRLGR [L1F], the protein stability index is 4.4.

With QARRRRRRQARREAEADKPRRLGR [L1Q], the protein stability index is 4.51.

On to AARRRRRRQARREAEADKPRRLGR [L1A], for which the protein stability index turned out to be 5.29.

Turning to MARRRRRRQARREAEADKPRRLGR [L1M], the protein stability index is 4.75.

Take WARRRRRRQARREAEADKPRRLGR [L1W]: the protein stability index amounted to 4.58.

Turning to DARRRRRRQARREAEADKPRRLGR [L1D], the protein stability index worked out at 5.28.

In the case of CARRRRRRQARREAEADKPRRLGR [L1C], the protein stability index is 5.39.

With IARRRRRRQARREAEADKPRRLGR [L1I], the protein stability index is 4.9.

For the variant YARRRRRRQARREAEADKPRRLGR [L1Y], the protein stability index was found to be 4.28.

As for VARRRRRRQARREAEADKPRRLGR [L1V], the protein stability index amounted to 4.98.

GARRRRRRQARREAEADKPRRLGR [L1G]: the protein stability index is 5.13.

Consider SARRRRRRQARREAEADKPRRLGR [L1S], for which the protein stability index turned out to be 5.66.

For the variant PARRRRRRQARREAEADKPRRLGR [L1P], the protein stability index is 5.18.

For HARRRRRRQARREAEADKPRRLGR [L1H], the protein stability index is 5.28.

Take NARRRRRRQARREAEADKPRRLGR [L1N]: the protein stability index turned out to be 4.89.

With RARRRRRRQARREAEADKPRRLGR [L1R], the protein stability index is 5.14.

Turning to EARRRRRRQARREAEADKPRRLGR [L1E], the protein stability index came to 5.22.
